For series [1], the target named is GST-His6-2×HBD (UniProt O60930). As to the kind of experiment: BLI. The settings on record: EMSA: 30 nM probe, 20 mM Hepes pH 7.0, 100 mM NaCl, 5% glycerol, 10 mM DTT, 0.5 mM EDTA, 5 ug/ml salmon sperm DNA, 25°C 30 min; BLI: 20 mM Hepes-NaOH pH 7.5 …. On the technique in general: A gel shift assay detects complexes by their altered migration in electrophoresis.
Series [2] addresses T1, GST-His6-HBD (UniProt O60930).
T1 sequence (O60930 whole entry, looked up): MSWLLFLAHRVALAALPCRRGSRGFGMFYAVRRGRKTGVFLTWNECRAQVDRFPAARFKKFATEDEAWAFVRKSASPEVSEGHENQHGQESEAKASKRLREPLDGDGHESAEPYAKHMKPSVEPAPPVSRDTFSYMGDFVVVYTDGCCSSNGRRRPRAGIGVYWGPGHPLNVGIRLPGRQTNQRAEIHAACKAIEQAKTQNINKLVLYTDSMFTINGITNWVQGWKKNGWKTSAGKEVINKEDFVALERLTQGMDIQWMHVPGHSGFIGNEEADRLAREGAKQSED
The series can be described thus: BLI. Conditions: EMSA: 30 nM probe, 20 mM Hepes pH 7.0, 100 mM NaCl, 5% glycerol, 10 mM DTT, 0.5 mM EDTA, 5 ug/ml salmon sperm DNA, 25°C 30 min; BLI: 20 mM Hepes-NaOH pH 7.5 ….

What is called Kd is the free concentration of one partner at which half of the binding sites on the other are occupied at equilibrium, for simple one-to-one binding. Read a low Kd as higher affinity. Consider “AGCGTGCCGTGCAACAACATTACAC / GUGUAAUGUUGUUGCACGGCACGCU [biotin DNA-RNA hybrid 25-mer (BLI)]”, for which the results for the Kd in series [1] and in series [2] were 10.4 nM and 16.5 nM, respectively.

The values are drawn from paper PMC7888926.
